Experimental data as given in patent US20170096652.

Target: transcription factor DdrO (Gene ID: 1798752; NP_296294.1) of Deinococcus radiodurans

B1: PprI protease (gene pprI, dr_0167; GeneID: 1798483; NCBI-GI: 15805204) of Deinococcus radiodurans (protein)
chain: MPSANVSPPCPSGVRGGGMGPKAKAEASKPHPQIPVKLPFVTAPDALAAAKARMRDLAAAYVAALPGRDTHSLMAGVPGVDLKFMPLGWRDGAFDPEHNVILINSAARPERQRFTLAHEIGHAILLGDDDLLSDIHDAYEGERLEQVIETLCNVAAAAILMPEPVIAEMLERFGPTGRALAELAKRAEVSASSALYALTEQTPVPVIYAVCAPGKPPREQAASDEDAGPSTEKVLTVRASSSTRGVKYTLASGTPVPADHPAALALATGMEVREESYVPFRSGRKMKAEVDAYPSRGIVAVSFEFDPARLGRKDSEQADRDEPQDAAQ
PprI cleavage activity detected by Western blotting: PprI cleaves DdrO into two fragments
protease activity in vitro, SDS-PAGE (40 minutes, 2.0 mM MnCl2): DdrO was cleaved by PprI into two fragments
protease activity in vitro, SDS-PAGE (40 minutes, 3.0 mM MnCl2): DdrO was cleaved by PprI into two fragments
protease activity in vitro, SDS-PAGE (40 minutes, 5.0 mM MnCl2): DdrO was cleaved by PprI into two fragments
